Here are results for two molecules from US20240317816A1, “PEPTIDES FOR IMMUNOTHERAPY” (Genevive, Inc., priority 2021, published 2024).

In one test the target is T1, CXCR3 (Homo sapiens, UniProt P49682).
T1 sequence (P49682 1-368): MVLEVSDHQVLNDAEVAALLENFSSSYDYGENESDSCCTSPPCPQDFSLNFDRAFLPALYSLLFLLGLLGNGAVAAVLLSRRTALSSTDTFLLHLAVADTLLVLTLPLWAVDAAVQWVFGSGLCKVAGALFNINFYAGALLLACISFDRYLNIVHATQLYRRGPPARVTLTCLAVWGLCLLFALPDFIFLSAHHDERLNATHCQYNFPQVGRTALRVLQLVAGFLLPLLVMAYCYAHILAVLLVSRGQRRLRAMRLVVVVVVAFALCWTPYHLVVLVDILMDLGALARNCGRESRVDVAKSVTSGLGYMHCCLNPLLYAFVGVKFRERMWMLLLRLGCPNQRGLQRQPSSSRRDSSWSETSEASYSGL
The experiment in a line: Positive allosteric modulator assay method 2 (PAM2), CXCR3-bla U2OS. Format: cell-based. Also on record: TEV protease site; Gal4-VP16 transcription factor ('Ga14-VP16' [sic]); Tango cell line; host or cells: Tango GPCR-bla U2OS. To be noted: varying CXCL11, fixed peptide concentration. From the text: (§1) Tango™ CXCR3-bla U2OS cells contain the human chemokine (C-X-C motif) receptor 3 linked to a TEV protease site and a Ga14-VP16 transcription factor stably integrated into the Tango™ GPCR-bla U2OS cell line. This parental cell line stably expresses a beta-arrestin/TEV protease fusion protein and the beta-lactamase reporter gene under the control of a UAS response element. The Tango™ CXCR3-bla U2OS cells have been functionally validated for a response to I-TAC (CXCL11).
Positive allosteric modulation was confirmed with an additional test method using a dose response setting for CXCL11. In positive allosteric modulator assay method 2 (PAM2), cells were diluted in Assay Media to an appropriate cell density, and were added to the assay plate. CXCR3-bla U2OS were stimulated with varying concentrations of CXCL11 ligand and a pre-determined fixed concentration of either SG-3-00802 or SG-3-06683 and incubated for 30 minutes. Ligand (CXCL9, CXCL10, or CXCL11) was added at increasing concentrations to wells containing the test compound.

Test [1] has as its target T2, human chemokine (C-X-C motif) receptor 3 (Homo sapiens, UniProt P49682).
T2 construct: TEV protease site; Gal4-VP16 transcription factor ('Ga14-VP16' [sic]); Tango cell line; host or cells: Tango GPCR-bla U2OS
T2 sequence (P49682 1-368): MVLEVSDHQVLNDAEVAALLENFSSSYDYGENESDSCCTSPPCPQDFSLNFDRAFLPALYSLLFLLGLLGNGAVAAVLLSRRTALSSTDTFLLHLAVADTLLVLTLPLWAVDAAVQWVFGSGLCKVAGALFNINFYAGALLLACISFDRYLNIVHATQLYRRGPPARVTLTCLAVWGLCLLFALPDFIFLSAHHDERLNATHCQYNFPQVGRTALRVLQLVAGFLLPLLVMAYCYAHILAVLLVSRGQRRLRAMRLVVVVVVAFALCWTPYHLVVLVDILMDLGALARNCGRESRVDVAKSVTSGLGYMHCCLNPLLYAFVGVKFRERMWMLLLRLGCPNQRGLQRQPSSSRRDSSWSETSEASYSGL
Put plainly: Positive allosteric modulator assay method 1 (PAM1), Tango CXCR3-bla U2OS. Format: cell-based. To be noted: retro-inverso peptide vs SG-3-00802.
Excerpt: To assay positive allosteric modulator activity of SG-3-00802 (SEQ ID NO: 1) and SG-3-006683 in CXCR3 cell lines, the cell line Tango™ CXCR3-bla U2OS was used in a positive allosteric modulator assay with two different methods, as described below.
as §1
In positive allosteric modulator assay method 1 (PAM1), cells were diluted in Assay Media to an appropriate cell density and were added to the assay plate. Peptides were added at increasing concentrations (1 nM-20 mcM) to the cells in the assay plate and incubated for 30 minutes. Ligand (CXCL9, CXCL10, or CXCL11) was added at an EC20 to all wells containing test compound. The assay plate was incubated for 16 hours at 37° C. Substrate Loading Solution was added to the assay plate and incubated for 2 hours at room temperature, in the dark. The assay plate was read on a fluorescence plate reader and the data was analyzed. PAM activity was calculated as follows:
% of PAM=((Test compound−Unstimulated)/(Stimulated−Unstimulated))×100.

Test [2] deals with Unstimulated human T cells. Put plainly: Transwell T cell migration towards CXCR3 ligands. Format: cell-based. As to conditions: CXCL11, 2.5 hours. As to the method: T cell migration towards CXCR3 ligands in the presence of SG-3-00802 and SG-3-06683 was tested using a Transwell migration assay. Suboptimal concentrations of each ligand (CXCR3 ligands CXCL9, CXCL10, and CXCL11) were added to the bottom of the transwell with increasing doses of SG-3-00802 or SG-3-006683. An optimal concentration of ligand was used as positive control, as indicated in the graphs.
Unstimulated human T cells were resuspended in AIM V serum-free media, then were added to the top chamber of a […] polycarbonate Transwell insert and incubated with the indicated concentrations of the ligands and peptides in the bottom chamber for 2.5 hours at 37° C. T cells that migrated to the bottom chamber were collected, stained with anti-CD3 antibody, and counted using Beckman Coulter Cytoflex flow cytometer. 123count eBeads counting beads were added to each of the wells for obtaining the absolute cell counts.

Test [3] concerns the target T3, human chemokine (C-X-C motif) receptor 3 (human, UniProt P49682 1-368).
T3 construct: whole, on cells; The PathHunter gpcrMAX panel uses a different, undescribed construct; also called CXCR3
T3 sequence (looked up): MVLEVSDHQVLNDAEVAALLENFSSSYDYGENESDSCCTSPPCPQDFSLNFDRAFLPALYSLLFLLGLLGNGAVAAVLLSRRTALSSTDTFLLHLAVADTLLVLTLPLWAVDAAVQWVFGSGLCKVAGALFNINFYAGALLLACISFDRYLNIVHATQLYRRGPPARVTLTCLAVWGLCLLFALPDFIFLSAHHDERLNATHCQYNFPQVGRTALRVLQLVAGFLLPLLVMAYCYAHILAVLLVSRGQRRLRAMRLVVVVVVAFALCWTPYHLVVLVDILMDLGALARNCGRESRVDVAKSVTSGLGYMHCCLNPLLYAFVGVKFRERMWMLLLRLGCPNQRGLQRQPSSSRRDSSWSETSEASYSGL
The experiment in a line: hit of DualSystems LRC-TriCEPS capture and SelectScreen reporter assay, confirmed in PathHunter beta-arrestin GPCR panel.

Where no end group is shown, it is not given here.

Take “GQRQKHKPNECIVMVRGKRRIIKCKECMPKVSPRVKM (not fully specified; cysteine pairing not given here) [SG-3-06683]”: the “activity of CXCL11 on the CXCR3 receptor (PAM2)” value in the test with CXCR3 is “enhanced the activity of the endogenous ligand CXCL11”. Besides, the “Activation of CXCR3” value in test [1] is reported as “maintained”. In addition, in test [2], the “T cell migration to suboptimal level of ligand” value was “increased migration”.

With MKVRPSVKPMCEKCKIIRRKGRVMVICENPKHKQRQG (also called PEP802) [SG-3-00802], in test [3], the binding result is on record as “binds”.
